Data set [1] deals with C5 (complement component C5) (UniProt P01031 19-673; P01031 678-1676). Description: ELISA, hFH (133 nM) immobilised, C5 in solution, detected with monoclonal C5 antibodies. How it is done:
FIG. 3. MFHR1 binds C5 and regulates terminal pathway activation by inhibition of the C5 convertase/C5 cleavage and MAC formation. A) MFHR1 binds to C5 as determined by ELISA. Equimolar amounts of MFHR1, full length FHR1, hFH or BSA (133 nM) were immobilized to Nunc plates and incubated with increasing concentrations (10, 20, 40 μg/ml) of C5. Binding was detected using monoclonal C5 antibodies and HRP-labelled secondary antibodies. Data are mean±SD from n=3 experiments B) MFHR1 inhibits AP activation by blockade of C5 cleavage. Cobra venom factor (CVF) C5 convertase was generated on sheep erythrocytes (sE) after adding Factor B (FB) and Factor D (FD). Hemolysis was induced after adding C5, C6, C7, C8 and C9 components and detected at 414 nm. […] C) MFHR1 inhibits formation of the membrane attack complex (MAC) on sE. MAC formation on sE was induced by incubation with C5b6, C7, C8 and C9 components and detected by hemolysis of cells. Preincubation of C5b6 with MFHR1, FHR1 or Eculizumab inhibited hemolysis at significant levels compared to hFH or BSA. […] In B and C control without regulator (w/o) was set as 100%. All data represent mean values ±SD of 3 separate experiments. ***P<0.001 vs. w/o control, one-way ANOVA with Bonferroni multiple comparison test.

Data set [2] deals with the molecule itself. The experiment in a line: size exclusion chromatography (Superdex 200 10/300 GL), self-association. How it is done:
FIG. 5. Multimeric complexes increase AP regulatory activity of MFHR1 in human serum. A) Size exclusion chromatography (Superdex 200 10/300 GL) of bovine serum albumin (BSA), serum plasma derived FH (hFH) and MFHR1. The three compositions of BSA mixture presented different retention volumes based on molecular mass, which was I. BSA trimer (198 kDa, 10.35 ml), II. BSA dimer (132 kDa, 11.45 ml) and III. BSA monomer (66 kDa, 13.4 ml). […] Theoretical trimer (II. 10.7), dimer (III. 11.4) intermediates (IV.-V.) or monomeric (IV. 13.5) MFHR1 are indicated in the elution profile. B) Analysis of MFHR1 after elution from SEC column as performed in A. 20 μl protein from fractions was loaded on a 10% SDS-PAGE and silver stained C) Afterwards, single or pooled MFHR1 SEC fractions were added into human serum at 10 nM and AP activation was proceeded by incubation in LPS coated wells using AP specific buffer conditions. Regulatory efficiency of MFHR1 fractions was analyzed by measuring C5b-9 complex formation. AP activity of untreated control serum was set to 100%.

Sequence of C5 (complement component C5) (P01031 19-673 limits assumed, chain 1 of 2): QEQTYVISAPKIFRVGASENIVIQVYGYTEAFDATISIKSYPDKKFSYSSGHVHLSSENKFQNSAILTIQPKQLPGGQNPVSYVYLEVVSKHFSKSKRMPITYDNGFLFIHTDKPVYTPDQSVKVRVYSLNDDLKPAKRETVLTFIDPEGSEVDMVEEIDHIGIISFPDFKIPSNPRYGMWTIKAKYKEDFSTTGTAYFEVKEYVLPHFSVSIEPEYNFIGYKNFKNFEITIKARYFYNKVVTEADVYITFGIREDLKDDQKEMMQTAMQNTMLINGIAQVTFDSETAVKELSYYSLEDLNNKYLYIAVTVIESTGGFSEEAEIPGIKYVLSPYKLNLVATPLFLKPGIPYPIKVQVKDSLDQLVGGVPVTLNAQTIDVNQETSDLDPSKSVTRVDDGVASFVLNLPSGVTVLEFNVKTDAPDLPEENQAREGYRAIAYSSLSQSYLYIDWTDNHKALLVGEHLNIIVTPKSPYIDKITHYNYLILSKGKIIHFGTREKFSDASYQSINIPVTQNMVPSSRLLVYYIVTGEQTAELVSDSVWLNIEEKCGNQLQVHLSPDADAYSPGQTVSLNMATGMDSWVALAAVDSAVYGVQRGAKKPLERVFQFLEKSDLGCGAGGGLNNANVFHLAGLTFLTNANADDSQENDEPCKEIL
Sequence of C5 (complement component C5) (P01031 678-1676 limits assumed, chain 2 of 2): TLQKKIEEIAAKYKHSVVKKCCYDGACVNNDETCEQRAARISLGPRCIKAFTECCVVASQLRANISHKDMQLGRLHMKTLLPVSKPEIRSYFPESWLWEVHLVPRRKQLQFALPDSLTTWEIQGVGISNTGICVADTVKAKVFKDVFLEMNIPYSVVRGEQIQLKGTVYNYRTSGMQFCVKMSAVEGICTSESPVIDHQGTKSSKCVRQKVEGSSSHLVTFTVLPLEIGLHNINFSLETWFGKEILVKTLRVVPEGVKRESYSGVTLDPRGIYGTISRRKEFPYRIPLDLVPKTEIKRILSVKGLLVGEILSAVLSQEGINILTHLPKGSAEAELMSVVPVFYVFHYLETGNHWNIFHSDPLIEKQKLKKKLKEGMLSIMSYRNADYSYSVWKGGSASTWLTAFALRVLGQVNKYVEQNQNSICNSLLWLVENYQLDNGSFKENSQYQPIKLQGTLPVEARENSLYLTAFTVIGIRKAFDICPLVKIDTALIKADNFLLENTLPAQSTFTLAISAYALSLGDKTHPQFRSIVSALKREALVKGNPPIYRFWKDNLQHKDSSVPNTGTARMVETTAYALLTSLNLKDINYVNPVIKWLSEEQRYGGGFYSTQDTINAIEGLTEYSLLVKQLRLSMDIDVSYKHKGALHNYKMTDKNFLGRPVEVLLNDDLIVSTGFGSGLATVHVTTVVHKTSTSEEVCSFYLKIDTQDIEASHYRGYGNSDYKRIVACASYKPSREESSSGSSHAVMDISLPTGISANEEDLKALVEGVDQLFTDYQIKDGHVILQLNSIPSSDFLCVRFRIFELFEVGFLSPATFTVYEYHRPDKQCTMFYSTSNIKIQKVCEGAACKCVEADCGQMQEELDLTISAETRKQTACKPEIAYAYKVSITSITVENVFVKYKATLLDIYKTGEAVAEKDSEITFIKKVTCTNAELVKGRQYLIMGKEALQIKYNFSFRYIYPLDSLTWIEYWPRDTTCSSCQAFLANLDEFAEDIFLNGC

B1: human plasma derived Factor H (hFH) (other)
chain: EDCNELPPRRNTEILTGSWSDQTYPEGTQAIYKCRPGYRSLGNVIMVCRKGEWVALNPLRKCQKRPCGHPGDTPFGTFTLTGGNVFEYGVKAVYTCNEGYQLLGEINYRECDTDGWTNDIPICEVVKCLPVTAPENGKIVSSAMEPDREYHFGQAVRFVCNSGYKIEGDEEMHCSDDGFWSKEKPKCVEISCKSPDVINGSPISQKIIYKENERFQYKCNMGYEYSERGDAVCTESGWRPLPSCEEKSCDNPYIPNGDYSPLRIKHRTGDEITYQCRNGFYPATRGNTAKCTSTGWIPAPRCTLKPCDYPDIKHGGLYHENMRRPYFPVAVGKYYSYYCDEHFETPSGSYWDHIHCTQDGWSPAVPCLRKCYFPYLENGYNQNYGRKFVQGKSIDVACHPGYALPKAQTTVTCMENGWSPTPRCIRVKTCSKSSIDIENGFISESQYTYALKEKAKYQCKLGYVTADGETSGSITCGKDGWSAQPTCIKSCDIPVFMNARTKNDFTWFKLNDTLDYECHDGYESNTGSTTGSIVCGYNGWSDLPICYERECELPKIDVHLVPDRKKDQYKVGEVLKFSCKPGFTIVGPNSVQCYHFGLSPDLPICKEQVQSCGPPPELLNGNVKEKTKEEYGHSEVVEYYCNPRFLMKGPNKIQCVDGEWTTLPVCIVEESTCGDIPELEHGWAQLSSPPYYYGDSVEFNCSESFTMIGHRSITCIHGVWTQLPQCVAIDKLKKCKSSNLIILEEHLKNKKEFDHNSNIRYRCRGKEGWIHTVCINGRWDPEVNCSMAQIQLCPPPPQIPNSHNMTTTLNYRDGEKVSVLCQENYLIQEGEEITCKDGRWQSIPLCVEKIPCSQPPQIEHGTINSSRSSQESYAHGTKLSYTCEGGFRISEENETTCYMGKWSSPPQCEGLPCKSPPEISHGVVAHMSDSYQYGEEVTYKCFEGFGIDGPAIAKCLGEKWSHPPSCIKTDCLSLPSFENAIPMGEKKDVYKAGEQVTYTCATYYKMDGASNVTCINSRWTGRPTCRDTSCVNPPTVQNAYIVSRQMSKYPSGERVRYQCRSPYEMFGDEEVMCLNGNWTEPPQCKDSTGKCGPPPPIDNGDITSFPLSVYAPASSVEYQCQNLYQLEGNKRITCRNGQWSEPPKCLHPCVISREIMENYNIALRWTAKQKLYSRTGESVEFVCKRGYRLSSRSHTLRTTCWDGKLEYPTCAKR
notes: Purified from human plasma, so the mature protein; also called FHplasma; plasma purified FH
Take B1: the binding result in data set [1] was “no binding (tested: 10, 20, 40 µg/ml of C5)”.

B2: MFHR1 (His-tag - FHR1(SCR1-2)-FH(SCR1-4)-FH(SCR19-20)) (other)
chain: ADLGSHHHHHHHHHHDYDRSFCDFPKINHGILYDEEKYKPFSQVPTGEVFYYSCEYNFVSPSKSFWTRITCTEEGWSPTPKCLRLCFFPFVENGHSESSGQTHLEGDTVQIICNTGYRLQNNENNISCVERGWSTPPKCRSEDCNELPPRRNTEILTGSWSDQTYPEGTQAIYKCRPGYRSLGNVIMVCRKGEWVALNPLRKCQKRPCGHPGDTPFGTFTLTGGNVFEYGVKAVYTCNEGYQLLGEINYRECDTDGWTNDIPICEVVKCLPVTAPENGKIVSSAMEPDREYHFGQAVRFVCNSGYKIEGDEEMHCSDDGFWSKEKPKCVEISCKSPDVINGSPISQKIIYKENERFQYKCNMGYEYSERGDAVCTESGWRPLPSCEDSTGKCGPPPPIDNGDITSFPLSVYAPASSVEYQCQNLYQLEGNKRITCRNGQWSEPPKCLHPCVISREIMENYNIALRWTAKQKLYSRTGESVEFVCKRGYRLSSRSHTLRTTCWDGKLEYPTCAKR
notes: Recombinant fusion protein expressed in SF9 insect cells (baculovirus); By size exclusion chromatography it runs mostly as a multimer; also called MFHR1 with His tag
On to B2, for which the binding result in data set [2] was “binds”.
